Experimental data taken from IntAct's records for PubMed 19571008.

B1: Non-homologous end-joining protein 1 (Saccharomyces cerevisiae), Q06148 (parent)
chain: MDSELKGQQLSDAEWCVKKINGEGNCLLLFLPMSSPTTIVMIVLVSLERLVPYVFKLSQTQLSQQCQSQGFTDSISLNLIKLKLMDILQAPQEINQIGLVDSNLVFSFDVSADITVSINSVPSHVTKDMFYMILQSLCMLLLKLVNLSTQYHYVQRDILNEKQKCLDFLLISLRDLDGGSKVISQWAPENSKNYESLQQCTDDDIIKKLLHKGKFQHQEFLADSLKTLLSLRNKFQDVSRFEESGELNKKERVRFPAVNHFYNDDFELQADPTNEARPNSRGKIKPKTDFKPKSRESSTSSQLRLENFSESEATPEKTKSSSSLVEEYPQKKRKFGKVRIKN

Variants of: B1
Settings: with srs2_yeast SRS2, P12954
Chain of srs2_yeast SRS2, P12954 (P12954 whole entry): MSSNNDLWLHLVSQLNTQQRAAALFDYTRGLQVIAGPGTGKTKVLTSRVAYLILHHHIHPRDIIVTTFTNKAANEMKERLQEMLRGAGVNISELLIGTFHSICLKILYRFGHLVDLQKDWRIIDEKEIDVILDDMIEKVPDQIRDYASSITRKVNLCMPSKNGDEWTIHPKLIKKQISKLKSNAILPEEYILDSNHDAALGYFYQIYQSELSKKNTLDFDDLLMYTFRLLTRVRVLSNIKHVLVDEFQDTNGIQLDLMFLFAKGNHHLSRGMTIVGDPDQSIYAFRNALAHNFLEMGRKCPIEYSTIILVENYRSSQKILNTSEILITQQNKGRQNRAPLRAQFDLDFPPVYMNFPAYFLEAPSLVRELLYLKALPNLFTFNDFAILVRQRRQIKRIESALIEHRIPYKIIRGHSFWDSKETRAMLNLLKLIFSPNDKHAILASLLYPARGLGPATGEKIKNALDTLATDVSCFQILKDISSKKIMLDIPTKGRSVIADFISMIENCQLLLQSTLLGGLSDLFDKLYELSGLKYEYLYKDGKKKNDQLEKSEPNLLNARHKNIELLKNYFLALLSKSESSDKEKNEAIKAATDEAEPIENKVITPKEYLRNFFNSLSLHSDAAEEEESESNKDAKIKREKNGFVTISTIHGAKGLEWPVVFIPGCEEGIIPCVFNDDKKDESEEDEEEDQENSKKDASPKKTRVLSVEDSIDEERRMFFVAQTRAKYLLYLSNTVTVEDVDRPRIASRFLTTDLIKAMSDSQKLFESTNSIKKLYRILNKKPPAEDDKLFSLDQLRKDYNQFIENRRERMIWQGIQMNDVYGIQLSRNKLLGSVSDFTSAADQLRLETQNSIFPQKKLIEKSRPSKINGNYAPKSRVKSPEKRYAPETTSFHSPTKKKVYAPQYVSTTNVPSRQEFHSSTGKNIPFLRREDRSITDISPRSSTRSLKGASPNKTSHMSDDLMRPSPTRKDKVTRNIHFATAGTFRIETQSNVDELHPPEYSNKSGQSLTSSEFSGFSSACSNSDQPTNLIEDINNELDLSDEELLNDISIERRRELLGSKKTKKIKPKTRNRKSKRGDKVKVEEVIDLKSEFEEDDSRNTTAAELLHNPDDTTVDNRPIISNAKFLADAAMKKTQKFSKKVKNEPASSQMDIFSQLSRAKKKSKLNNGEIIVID

Effect of a mutation on the interaction, disrupting interaction:
S298A
S297A
S297A;S298A
